± gives the standard deviation of the averaged measurements.
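Also: ATP exposure 15 min at 22 °C before imaging.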

The subject of the series is ATP. The series is described as follows: switch fluorescence ratio, 500 uM ATP over buffer (Cy3 cluster intensity, sum of 5 cycles each) (fold (ratio)); higher = stronger signal-on switching upon ATP binding; sequences stand for … in TCGTCGGCAGCGTCAGATGTGTATAAGAGACAGTTTTTTTTTTTTTTTTTTTTTTTTT…TC. As to conditions: aptamer strand: ATP DNA aptamer (quencher-CACCTGGGGGAGTATTGCGGAGGAAGG + anchor), 100 nM annealed; ATP concentration: 500 uM. An outline of the steps:
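Five buffer/ATP imaging cycles were run on Cy3-labelled switching-strand clusters on a modified Illumina MiSeq flow-cell, with NaOH stripping and re-annealing between cycles. In each cycle, clusters annealed to 100 nM quencher-labelled ATP aptamer were imaged in selection buffer, then after 15 min with 500 uM ATP at 22 °C. Per cluster, the fluorescence ratio is summed target-cycle over summed buffer-cycle Cy3 intensity, averaged per switch-domain sequence. Only clusters within 100-1000 RFU were kept.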
With GGGTTCTTAT, the switch fluorescence ratio was 0.992 ± 0.027.
The value for GAATGGGGTA was 1.011 ± 0.0057; that for TGCATAGGGG was 0.999 ± 0.018; that for GGCGAGTGAG was 1.03 ± 0.029.
For TGAGAGGAGG, the switch fluorescence ratio was found to be 1 ± 0.028.
As for GATACTGATC, the switch fluorescence ratio came out at 1.13 ± 0.042.
The value for GTTGCAAGAA was 1.13 ± 0.06.
With TTTGGACGGC the figure was 1.04 ± 0.065; with AATAGGCACC, 0.993 ± 0.018.
On to AGTCGTTTGC, for which the switch fluorescence ratio was determined as 0.938 ± 0.061.
With TAGAAAAGGC the figure was 1.15 ± 0.21; with TTTTGAAGTA, 1.0186 ± 0.00093; with CTGGTTACGG, 1.01 ± 0.015.
The value for AGGGCGACAG was 1.01 ± 0.012.
With TTGCTTGTGT the figure was 0.9983 ± 0.0049; with TGGTAATATT, 0.962 ± 0.015; with ACACGGGGTG, 1.018 ± 0.0018.
For AGAGAACTTG, the switch fluorescence ratio was 0.983 ± 0.1.
With GGGGGTTACA the figure was 1.005 ± 0.005; with ATATTGACGG, 1.09 ± 0.12.
The value for GGGAAGCATT was 0.989 ± 0.023; that for TATTTTGGAA was 0.986 ± 0.044; that for TTCAAAAGGG was 1.05 ± 0.052.
The value for TCTTTTTAGT was 1 ± 0.029.
For the sequence GGGGACTTGT, the switch fluorescence ratio came out at 0.9988 ± 0.0082.
Regarding GCGATCAAGG, the switch fluorescence ratio was found to be 1.02 ± 0.012.
Turning to TTGAGTTCGG, the switch fluorescence ratio stood at 0.986 ± 0.015.
The value for TACAAAAGGT was 1.07 ± 0.094; that for TACGGGGCGA was 1.07 ± 0.036.
With ATTTGACGGG the figure was 1.03 ± 0.047.
Turning to TCCAAGGGTA, the switch fluorescence ratio was found to be 0.997 ± 0.025.
The value for TGGGTTTGAG was 0.99 ± 0.035; that for AGGAACGCGC was 1.02 ± 0.027.
The value for GCTGGTAATG was 1.01 ± 0.021; that for GAATAAGAGA was 0.974 ± 0.036; that for TTACATTTTG was 1.01 ± 0.026.
As to TATTTGGAGT, the switch fluorescence ratio is 1.012 ± 0.0022.
On to CCGAACTTTT, for which the switch fluorescence ratio is 1.07 ± 0.075.
Consider GCATGAACAT, for which the switch fluorescence ratio amounted to 0.98 ± 0.026.
On to GAGGGCCGCA, for which the switch fluorescence ratio amounted to 1.05 ± 0.011.
The value for GGTGTTAGGC was 1.01 ± 0.032; that for TTTGCATGAA was 0.992 ± 0.011.
With CATATATCGG the figure was 1.02 ± 0.012; with TATAGTACGG, 1.049 ± 0.0095.
The value for CGTATAGCGG was 1.02 ± 0.076; that for CAAAAGAGTG was 0.999 ± 0.018.
As to TTGATATATA, the switch fluorescence ratio came to 0.974 ± 0.018.
The value for GGTGTAGCTT was 1.014 ± 0.0083.
With GATTTTGGAT the figure was 0.994 ± 0.012; with CGTTGCGCCA, 1.02 ± 0.013; with TCATGGGTGG, 0.99 ± 0.02.
With GTTGACGTTG the figure was 0.991 ± 0.054; with CAAGTTATAA, 0.994 ± 0.023; with TGAAATTGTG, 1.01 ± 0.022.
For CAAAGGGGCA, the switch fluorescence ratio was 1.046 ± 0.0052.
With TTGTGAAAGA the figure was 1.01 ± 0.021; with CCAGTATGTG, 1.04 ± 0.054.
With AGTAAAAATG the figure was 0.982 ± 0.027; with TTGTGGTCTT, 0.9762 ± 0.0075.
With AGCAGACTGG the figure was 0.988 ± 0.0033.
As for ATGGATTTAA, the switch fluorescence ratio was 1.012 ± 0.0041.
The value for GACTGCGGGG was 0.987 ± 0.038.
With AGACGGGTGC the figure was 1.08 ± 0.074.
With TTGAGTACTT the figure was 0.988 ± 0.025; with TATTTCGTTG, 0.998 ± 0.059.
As to TTTTTTGGAC, the switch fluorescence ratio was found to be 1.01 ± 0.045.

The values above are taken from the supplement of paper PMC10126150.
